Test results reported in PMC6326779 (2018).

Biological target: T1, CRBN (Homo sapiens, UniProt Q96SW2)
T1 chain: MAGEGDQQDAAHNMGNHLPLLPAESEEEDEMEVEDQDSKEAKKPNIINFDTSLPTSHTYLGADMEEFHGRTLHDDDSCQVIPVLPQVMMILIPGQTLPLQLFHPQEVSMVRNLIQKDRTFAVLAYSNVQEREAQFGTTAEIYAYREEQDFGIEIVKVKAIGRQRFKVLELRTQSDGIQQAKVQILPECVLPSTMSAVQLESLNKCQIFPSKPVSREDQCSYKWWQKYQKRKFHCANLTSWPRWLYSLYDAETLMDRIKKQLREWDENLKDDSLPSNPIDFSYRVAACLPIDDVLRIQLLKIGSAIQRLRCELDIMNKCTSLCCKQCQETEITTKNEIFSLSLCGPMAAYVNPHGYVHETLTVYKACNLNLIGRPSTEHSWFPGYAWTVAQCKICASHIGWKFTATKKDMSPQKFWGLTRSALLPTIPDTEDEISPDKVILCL
Assay: TR-FRET

Ki: 165 nM
B1: IKZF1 ZF2-ZF3 143-243(Δ197-238) (protein)
chain: RPFQCNQCGASFTQKGNLLRHIKLHSGEKPFKCHLCNYACRRRDALTGHLRTHSVGKPHKCGYCGRSYKQRSSLEEHKERCHNYLESMGLPGTLYPVIKEE
modifications: pomalidomide
